According to patent US20030148389A1 (SERONO GENETICS INSTITUTE S A, published 2003):

Biological target: T1, PAPAP protein (human)
T1 construct: Identified by expression cloning; COS-1 cells transfected with the cDNA clone were stained by the AP fusion probe; also called PAPAP polypeptide; PAPAP gene product
Test: in situ receptor binding assay: AP staining of COS-1 cells transfected with human brain cDNA pools, incubated with PAP-AP fusion medium
Description: Plasmid DNA was obtained from pools of ˜1000 colonies using the QiaPrep Spin Miniprep kit (Qiagen). These pools of DNA were then transiently transfected into COS-1 cells as follows. Two micrograms of DNA from each pool of human brain cDNAs was diluted into 200 ul of serum-free medium (DMEM medium from Gibco-BRL with no additives). The DNA was complexed to the PLUS reagent by adding 12 ul of (mixed prior to use) PLUS reagent to the DNA in serum-free medium. 200 ul of the DNA-PLUS-Lipofectamine reagent complexes was added to wells containing Cos-1 cells plated at 0.25×10⁵ cells per well in 6 well dishes (35 mm) the day prior to transfection (in complete medium containing no antibiotics). Previous to the addition of the DNA/lipofectamine/PLUS complex, the complete medium was removed from the cells and replaced with 800 ul serum-free medium. Cells were incubated at 37 degrees C. at 5% CO₂ for 3 hours; then the medium in each well was replaced with 2 ml of complete medium.
Two days after transfection, cell staining was begun. Culture medium was removed from cells in the 6 well dishes. […]

T1 sequence (chain, as listed by the source limits assumed): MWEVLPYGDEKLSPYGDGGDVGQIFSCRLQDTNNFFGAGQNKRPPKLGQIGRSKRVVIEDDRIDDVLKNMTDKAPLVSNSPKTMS

B1: g34872 peptide-alkaline phosphatase fusion protein (other)
chain: DAAQPARRARRTYEAYQPLERMWTCNYNQQKDQSCNHKEITSTKAERRSSGIIPVEEENPDFWNREAAEALGAAKKLQPAQTAAKNLIIFLGDGMGVSTVTAARILKGQKKDKLGPEIPLAMDRFPYVALSKTYNVDKHVPDSGATATAYLCGVKGNFQTIGLSAAARFNQCNTTRGNEVISVMNRAKKAGKSVGVVTTTRVQHASPAGTYAHTVNRNWYSDADVPASARQEGCQDIATQLISNMDIDVILGGGRKYMFPMGTPDPEYPDDYSQGGTRLDGKNLVQEWLAKRQGARYVWNRTELMQASLDPSVTHLMGLFEPGDMKYEIHRDSTLDPSLMEMTEAALRLLSRNPRGFFLFVEGGRIDHGHHESRAYRALTETIMFDDAIERAGQLTSEEDTLSLVTADHSHVFSFGGYPLRGSSIFGLAPGKARDRKAYTVLLYGNGPGYVLKDGARPDVTESESGSPEYRQQSAVPLDEETHAGEDVAVFARGPQAHLVHGVQEQTFIAHVMAFAACLEPYTACDLAPPAGTTDAAHPGYLEEALSLEGPEQKLISEEDLNSAVDHHHHHH
notes: Used as conditioned medium from stably transfected 293T cells; The vector has a secretion signal upstream of the insert; also called PAP-AP fusion protein; AP fusion protein
binding result: binds
